The results in this text go back to publication PMC4968818.

This assay addresses voltage-dependent anion channel (VDAC) protein (human (endogenous in T47D)) (UniProt P21796). Description: co-IP; VDAC immunoprecipitated from cell lysate (anti-VDAC1/2/3, protein G agarose; lysate first blocked with 10 uM VDAC-binding membrane domain peptide), beads washed with PBS and incubated at RT for 50 min with recombinant HK at pH 7.8; western blots for HK-1, HK-2 and VDAC; band intensities normalized by VDAC bands. (In western blotting, separated proteins are transferred to a membrane and probed.)

B1: recombinant hexokinase 2 (HK-2) (enzyme)
chain: MIASHLLAYFFTELNHDQVQKVDQYLYHMRLSDETLLEISKRFRKEMEKGLGATTHPTAAVKMLPTFVRSTPDGTEHGEFLALDLGGTNFRVLWVKVTDNGLQKVEMENQIYAIPEDIMRGSGTQLFDHIAECLANFMDKLQIKDKKLPLGFTFSFPCHQTKLDESFLVSWTKGFKSSGVEGRDVVALIRKAIQRRGDFDIDIVAVVNDTVGTMMTCGYDDHNCEIGLIVGTGSNACYMEEMRHIDMVEGDEGRMCINMEWGAFGDDGSLNDIRTEFDQEIDMGSLNPGKQLFEKMISGMYMGELVRLILVKMAKEELLFGGKLSPELLNTGRFETKDISDIEGEKDGIRKAREVLMRLGLDPTQEDCVATHRICQIVSTRSASLCAATLAAVLQRIKENKGEERLRSTIGVDGSVYKKHPHFAKRLHKTVRRLVPGCDVRFLRSEDGSGKGAAMVTAVAYRLADQHRARQKTLEHLQLSHDQLLEVKRRMKVEMERGLSKETHASAPVKMLPTYVCATPDGTEKGDFLALDLGGTNFRVLLVRVRNGKWGGVEMHNKIYAIPQEVMHGTGDELFDHIVQCIADFLEYMGMKGVSLPLGFTFSFPCQQNSLDESILLKWTKGFKASGCEGEDVVTLLKEAIHRREEFDLDVVAVVNDTVGTMMTCGFEDPHCEVGLIVGTGSNACYMEEMRNVELVEGEEGRMCVNMEWGAFGDNGCLDDFRTEFDVAVDELSLNPGKQRFEKMISGMYLGEIVRNILIDFTKRGLLFRGRISERLKTRGIFETKFLSQIESDCLALLQVRAILQHLGLESTCDDSIIVKEVCTVVARRAAQLCGAGMAAVVDRIRENRGLDALKVTVGVDGTLYKLHPHFAKVMHETVKDLAPKCDVSFLQSEDGSGKGAALITAVACRIREAGQR
In the case of B1, the amount co-precipitated at pH 7.8, percent of that at pH 6.2 was 213%.

B2: recombinant hexokinase 1 (HK-1) (enzyme)
chain: MIAAQLLAYYFTELKDDQVKKIDKYLYAMRLSDETLIDIMTRFRKEMKNGLSRDFNPTATVKMLPTFVRSIPDGSEKGDFIALDLGGSSFRILRVQVNHEKNQNVHMESEVYDTPENIVHGSGSQLFDHVAECLGDFMEKRKIKDKKLPVGFTFSFPCQQSKIDEAILITWTKRFKASGVEGADVVKLLNKAIKKRGDYDANIVAVVNDTVGTMMTCGYDDQHCEVGLIIGTGTNACYMEELRHIDLVEGDEGRMCINTEWGAFGDDGSLEDIRTEFDREIDRGSLNPGKQLFEKMVSGMYLGELVRLILVKMAKEGLLFEGRITPELLTRGKFNTSDVSAIEKNKEGLHNAKEILTRLGVEPSDDDCVSVQHVCTIVSFRSANLVAATLGAILNRLRDNKGTPRLRTTVGVDGSLYKTHPQYSRRFHKTLRRLVPDSDVRFLLSESGSGKGAAMVTAVAYRLAEQHRQIEETLAHFHLTKDMLLEVKKRMRAEMELGLRKQTHNNAVVKMLPSFVRRTPDGTENGDFLALDLGGTNFRVLLVKIRSGKKRTVEMHNKIYAIPIEIMQGTGEELFDHIVSCISDFLDYMGIKGPRMPLGFTFSFPCQQTSLDAGILITWTKGFKATDCVGHDVVTLLRDAIKRREEFDLDVVAVVNDTVGTMMTCAYEEPTCEVGLIVGTGSNACYMEEMKNVEMVEGDQGQMCINMEWGAFGDNGCLDDIRTHYDRLVDEYSLNAGKQRYEKMISGMYLGEIVRNILIDFTKKGFLFRGQISETLKTRGIFETKFLSQIESDRLALLQVRAILQQLGLNSTCDDSILVKTVCGVVSRRAAQLCGAGMAAVVDKIRENRGLDRLNVTVGVDGTLYKLHPHFSRIMHQTVKELSPKCNVSFLLSEDGSGKGAALITAVGVRLRTEASS
Regarding B2, the amount co-precipitated at pH 7.8, percent of that at pH 6.2 worked out at 143%.
